Data set [1] concerns the target T1, An‐FD, Pro‐Asp‐(Phe‐Asp)5‐Pro.
T1 peptide: PDFDFDFDFDFDP
Briefly: MST.

Data set [2] has as its target T2, An‐FD, Pro‐Asp‐(Phe‐Asp)5‐Pro.
T2 chain: PDFDFDFDFDFDP
In words: other fluorescence titration.

Data set [3] concerns the target T3, Sc‐FD (a scrambled version of An‐FD).
T3 peptide: DFFPDDPFDFFDD
In words: ITC. On the technique in general: ITC needs no label: the signal is the heat of the interaction.

The target of data set [4] is T1, An‐FD, Pro‐Asp‐(Phe‐Asp)5‐Pro. Briefly: ITC.

From publication PMC11579972 (Small (Weinheim an Der Bergstrasse, Germany), 2024) come the findings set out here.

For orientation: Kd means the equilibrium constant for the complex coming apart. Low readings indicate a tighter complex, high ones a looser complex. One may read the stoichiometry N as the number of molecules, sites or subunits per partner or assembly.

B1: Cat‐FK, Pro‐Lys‐(Phe‐Lys)5‐Pro (peptide)
peptide: PKFKFKFKFKFKP
Regarding B1, the Kd in data set [1] turned out to be 50 ± 8 µM. Also, in data set [2], the “critical coassembly concentration (CCC) at 25% An-FD” value is 0.096, 0.058, and 0.14 mM; the “critical coassembly concentration (CCC) at 50% An-FD” value is 0.096, 0.058, and 0.14 mM; the “critical coassembly concentration (CCC) at 75% An-FD” value was 0.096, 0.058, and 0.14 mM. The molecule further gave a dH in data set [3] of 1.43 ± 2.87 kcal/mol. Further, in data set [4], the Kd is approximately 40 µM, the dH is -8.37 kcal/mol and the “stoichiometry N” value is 1.12.
